The record followed here is the RNAGym collection of RNA variant scans (doi:10.1073/pnas.2313332121).

The labels stand for the following.
B1: TPR t1 (parent)
chain: GACCAAUCUGCCCUCAGAGCUCGAGAACAUCUUCGGAUGCAGAGGAGGCAGGCUUCGGUGGCGCGAUAGCGCCAACGUCCUCAACCUCCAAUGCAUCCCACCACAUGAUGAUGCCUGAAGAGCCUUGGUUUUUUG

In this data set the parent is B1. As to the kind of experiment: polymerase ribozyme fitness, log enrichment relative to wild type (log ratio); higher = more active; in vitro selection for triplet polymerase activity. In a few lines:
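Each subunit of a heterodimeric triplet polymerase ribozyme was mutagenized into a library by PCR, transcribed, and subjected to one round of in vitro selection, run in triplicate. Libraries were annealed with a biotinylated primer, the partner subunit and triplets, incubated frozen at −7 °C, and extended constructs were gel-excised, captured on streptavidin beads and recovered by RT-PCR. Input and output libraries were sequenced on Illumina, keeping genotypes with ≥10 input reads and ≥1 read per output. Fitness is log base 2 of genotype enrichment divided by wild-type enrichment, from inverse-variance-weighted replicate averages.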
Take C11A G17C: the “polymerase ribozyme fitness (log ratio)” value was -4.25.
Turning to G58C A66G, the “polymerase ribozyme fitness (log ratio)” value is -0.999.
Under A50C C101A stands -1.83; under A46U U78C C82G, -1.76.
Turning to G44U G52U U55A U132A, the “polymerase ribozyme fitness (log ratio)” value was -2.55.
Turning to G10A U116C, the “polymerase ribozyme fitness (log ratio)” value was -0.237.
For U59C U81C U106A, the “polymerase ribozyme fitness (log ratio)” value is -0.294.
U78G G117C: the “polymerase ribozyme fitness (log ratio)” value was -4.47.
In the case of C72G U78A G127U U129C, the “polymerase ribozyme fitness (log ratio)” value is -2.25.
For C70U U87G G120C the value was 1.04.
For the variant U38C C70A, the “polymerase ribozyme fitness (log ratio)” value was -1.91.
For C56A C97G the value was -4.2; for C22U C56U, -3.77.
For A6G A46U G48U C101U U116C G122U the value was -5.6; for C8U C12U, 0.659; for A18C G19A C85U G120A, -3.39.
Under G39A A43U C88G C123A stands -4.11; under C56U C85A C88A, -2.83.
Turning to C13U U78A C79A U129G, the “polymerase ribozyme fitness (log ratio)” value was -3.68.
In the case of C12G C15U A74U U116A G117A U133A, the “polymerase ribozyme fitness (log ratio)” value is -1.36.
In the case of C22G U38A U96C U112A A121U, the “polymerase ribozyme fitness (log ratio)” value is -3.78.
For G61U C104A the value was -1.7; for A6U G48U C89A A105U, -6.02; for A37C C49A C76G G117A C123G U125A, -1.24.
With C40A G63A A84U, the “polymerase ribozyme fitness (log ratio)” value is -2.88.
Consider G45C C80U U87A, for which the “polymerase ribozyme fitness (log ratio)” value is -2.93.
Under A6C G58C G60U A95C stands -1.05.
Take U106G C123G C124G: the “polymerase ribozyme fitness (log ratio)” value turned out to be 1.38.
Consider A26U C31G A43G C89A A121U, for which the “polymerase ribozyme fitness (log ratio)” value was -7.24.
On to A5G G17A, for which the “polymerase ribozyme fitness (log ratio)” value was -2.47.
As to A5U C15A C62A G122A, the “polymerase ribozyme fitness (log ratio)” value is -4.9.
As for C73G C80U, the “polymerase ribozyme fitness (log ratio)” value was -1.77.
In the case of G57U C72A C88U, the “polymerase ribozyme fitness (log ratio)” value was -1.77.
Under A6U A74U stands 0.241; under G113C C115A, -4.21; under G122U C124A, 1.69.
For G48U C56A C102U the value was -2.75; for C12A A43U C56A, -2.54; for G39U, -0.799.
G47C U81G G93A C101U: the “polymerase ribozyme fitness (log ratio)” value is -5.71.
Consider C99A G127A, for which the “polymerase ribozyme fitness (log ratio)” value is -5.8.
Turning to A29C A75G C124G U129C, the “polymerase ribozyme fitness (log ratio)” value is -1.16.
For G39C A118C the value was -2.89.
In the case of C62A G117A, the “polymerase ribozyme fitness (log ratio)” value was -2.71.
U9A C31G: the “polymerase ribozyme fitness (log ratio)” value was -4.11.
Under C3A G128U stands -1.03.
As to G44C C88A U109A, the “polymerase ribozyme fitness (log ratio)” value was -5.8.
With G44U A46C G52U G61U C124A, the “polymerase ribozyme fitness (log ratio)” value was -3.53.
As to G93A C124A, the “polymerase ribozyme fitness (log ratio)” value turned out to be 0.841.
For C76U C94U C104U U131C, the “polymerase ribozyme fitness (log ratio)” value is -0.407.
For U32G G122A the value was -7.09; for A41U A74U, -1.31; for U32C G45A G63C C114U, -2.97.
Turning to C62G C114U U116A, the “polymerase ribozyme fitness (log ratio)” value was -5.69.
In the case of G52U U55C C79U, the “polymerase ribozyme fitness (log ratio)” value was -0.237.
Regarding U7C C101U C104U, the “polymerase ribozyme fitness (log ratio)” value came out at 0.219.
As to G51C C53G C94G, the “polymerase ribozyme fitness (log ratio)” value is -5.44.
With C40G G48U U92A, the “polymerase ribozyme fitness (log ratio)” value was -4.05.
As for G17U C34A C124G U133A, the “polymerase ribozyme fitness (log ratio)” value was -2.78.
Turning to C22G C123A, the “polymerase ribozyme fitness (log ratio)” value is -3.18.
Consider C72U G77U A100C A118U U129C, for which the “polymerase ribozyme fitness (log ratio)” value is -2.77.
Take G69C C82U U126G: the “polymerase ribozyme fitness (log ratio)” value is -3.1.
For the variant G63U G127U, the “polymerase ribozyme fitness (log ratio)” value is -1.73.
As for G69A G93A, the “polymerase ribozyme fitness (log ratio)” value is -3.19.
As for C70G U133G, the “polymerase ribozyme fitness (log ratio)” value is -3.44.
In the case of C22G G61U, the “polymerase ribozyme fitness (log ratio)” value is -2.12.
On to C101G U133A, for which the “polymerase ribozyme fitness (log ratio)” value is -1.55.
As to A26U C56U, the “polymerase ribozyme fitness (log ratio)” value was -3.38.
Turning to A2U C64U C124U, the “polymerase ribozyme fitness (log ratio)” value is -1.49.
As for G44U C72G U92A C115G, the “polymerase ribozyme fitness (log ratio)” value is -5.53.
For A27U C80A the value was -5.56; for G10A C82A A95U, -0.318.
Consider U109C U130C, for which the “polymerase ribozyme fitness (log ratio)” value was -5.04.
For G52A G60U C82A C88U A90G U116A U130A, the “polymerase ribozyme fitness (log ratio)” value is -6.12.
For C8G C62U the value was 0.179; for G60U G120A U126A, -0.262.
In the case of A50G U78C, the “polymerase ribozyme fitness (log ratio)” value was 0.0914.
For the variant G36C C94U, the “polymerase ribozyme fitness (log ratio)” value was -1.47.
For the variant A18U G61C, the “polymerase ribozyme fitness (log ratio)” value is -5.22.
Regarding A105C G120C, the “polymerase ribozyme fitness (log ratio)” value is -1.78.
C49A C72G U132C: the “polymerase ribozyme fitness (log ratio)” value is -0.77.
For G47U G52A C72U the value was -2.43; for A26G A37U C72G C123U U133A, -2.74.
In the case of A41U C49U U109A U130G, the “polymerase ribozyme fitness (log ratio)” value is -6.38.
